Target: the molecule itself
Assay: SEC-MALS

B1: fibulin 5 fragment, residues 120–333 (cbEGFs 2–6) (domain or fragment, UniProt Q9UBX5 120-333, looked up)
chain: DESNQCVDVDECATDSHQCNPTQICINTEGGYTCSCTDGYWLLEGQCLDIDECRYGYCQQLCANVPGSYSCTCNPGFTLNEDGRSCQDVNECATENPCVQTCVNTYGSFICRCDPGYELEEDGVHCSDMDECSFSEFLCQHECVNQPGTYFCSCPPGYILLDDNRSCQDINECEHRNHTCNLQQTCYNLQGGFKCIDPIRCEEPYLRISDNRCM
modifications: N-glycosylated by the EBNA 293 cells (potential N-linked sites at residues 283 and 296)
- stoichiometry N: 2

From article PMC2757994 (The Journal of Biological Chemistry, 2009)
